Test results as given in publication doi:10.1101/2025.03.26.644761 (bioRxiv, 2025).

What was measured:
[1] = biological target: the molecule itself; experiment: solid-state NMR of homomeric fibrils
[2] = biological target: T1, His6-YPet-mRIPK3_(379-486) (mouse, UniProt Q9QZL0 379-486); experiment: SDS semi-denaturing agarose gel electrophoresis
T1 sequence (looked up): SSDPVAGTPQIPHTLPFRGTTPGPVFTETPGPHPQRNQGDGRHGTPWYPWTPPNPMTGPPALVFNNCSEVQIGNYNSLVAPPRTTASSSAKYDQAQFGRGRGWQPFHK

[3] = biological target: the molecule itself; experiment: single molecule fluorescence
[4] = biological target: the molecule itself; experiment: Thioflavin T fluorescence + negative stain transmission electron microscopy
[5] = biological target: T2, His6-YPet-hRIPK3_(387–518) (human, UniProt Q9Y572 387-518); experiment: Two-Colour Coincidence Detection spectroscopy
T2 sequence (looked up): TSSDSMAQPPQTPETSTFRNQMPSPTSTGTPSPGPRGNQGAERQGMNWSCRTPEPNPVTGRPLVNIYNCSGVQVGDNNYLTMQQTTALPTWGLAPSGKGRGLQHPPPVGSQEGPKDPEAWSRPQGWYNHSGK

B1: RIPK3_(387-518), RHIM-containing region of human RIPK3, tag removed (domain or fragment, UniProt Q9Y572 387-518, looked up)
chain: TSSDSMAQPPQTPETSTFRNQMPSPTSTGTPSPGPRGNQGAERQGMNWSCRTPEPNPVTGRPLVNIYNCSGVQVGDNNYLTMQQTTALPTWGLAPSGKGRGLQHPPPVGSQEGPKDPEAWSRPQGWYNHSGK
- binding result [1]: binds

B2: His6-M45_(1–90)-mCherry, wild type (domain or fragment, murine cytomegalovirus (MCMV), UniProt Q06A28 1-90, looked up)
chain: MDRQPKVYSDPDNGFFFLDVPMPDDGQGGQQTATTAAGGAFGVGGGHSVPYVRIMNGVSGIQIGNHNAMSIASCWSPSYTDRRRRSYPKT
- binding result [2]: binds
- binding result [3]: binds

B3: M45_(1-90), RHIM-containing N-terminal region of MCMV M45 (viral inhibitor of RIP activation), tag removed (domain or fragment, murine cytomegalovirus (MCMV), UniProt Q06A28 1-90, looked up)
chain: MDRQPKVYSDPDNGFFFLDVPMPDDGQGGQQTATTAAGGAFGVGGGHSVPYVRIMNGVSGIQIGNHNAMSIASCWSPSYTDRRRRSYPKT
- binding result [1]: binds

B4: His6-M45_(1–90)-mCherry, AAAA mutant A (domain or fragment, murine cytomegalovirus (MCMV), UniProt Q06A28 1-90, looked up)
chain: MDRQPKVYSDPDNGFFFLDVPMPDDGQGGQQTATTAAGGAFGVGGGHSVPYVAAAAGVSGIQIGNHNAMSIASCWSPSYTDRRRRSYPKT
- binding result [4]: binds
- binding result [5]: binds

B5: His6-M45_(1–90)-mCherry, AAAA mutant C (domain or fragment, murine cytomegalovirus (MCMV), UniProt Q06A28 1-90, looked up)
chain: MDRQPKVYSDPDNGFFFLDVPMPDDGQGGQQTATTAAGGAFGVGGGHSVPYVRIMNGVSGAAAANHNAMSIASCWSPSYTDRRRRSYPKT
- binding result [5]: binds

B6: His6-M45_(1–90)-mCherry, AAAA mutant B (domain or fragment, murine cytomegalovirus (MCMV), UniProt Q06A28 1-90, looked up)
chain: MDRQPKVYSDPDNGFFFLDVPMPDDGQGGQQTATTAAGGAFGVGGGHSVPYVRIMNAAAAIQIGNHNAMSIASCWSPSYTDRRRRSYPKT
- binding result [3]: binds
- binding result [5]: binds

B7: His6-M45_(1–90)-mCherry, AAAA mutant E (domain or fragment, murine cytomegalovirus (MCMV), UniProt Q06A28 1-90, looked up)
chain: MDRQPKVYSDPDNGFFFLDVPMPDDGQGGQQTATTAAGGAFGVGGGHSVPYVRIMNGVSGIQIGNHNAAAAASCWSPSYTDRRRRSYPKT
- binding result [5]: binds

B8: His6-M45_(1–90)-mCherry, AAAA mutant D (domain or fragment, murine cytomegalovirus (MCMV), UniProt Q06A28 1-90, looked up)
chain: MDRQPKVYSDPDNGFFFLDVPMPDDGQGGQQTATTAAGGAFGVGGGHSVPYVRIMNGVSGIQIGAAAAMSIASCWSPSYTDRRRRSYPKT
- binding result [5]: binds
